Test results from patent US12194076B2, “Methods and compositions for treating myelofibrosis” (Acceleron Pharma Inc., priority 2016, dated 2025).
Where a chain is given by its changes, count along the chain named. In names and notes the source's numbering stands.

Key:
C57BL/6 mice = assay: GDF trap in ruxolitinib treated animals, hematological parameters; type: in vivo; conditions: 60 mg/kg twice daily, four weeks
Text: Ruxolitinib is a Janus kinase inhibitor that has been approved for the treatment of intermediate or high-risk myelofibrosis. […] However, a variety of hematological side effects have been observed in patients treated with ruxolitinib including, for example, anemia. Nine month old C57BL/6 mice were used to understand the effects of ActRIIB(L79D 25-131)-Fc treatment on various hematological parameters in ruxolitinib treated mice.
For this study, treatment was initiated at 6-7 months of age. Mice were placed into one of four groups: i) treatment with ActRIIB(L79D 25-131)-Fc on a dosing schedule of 10 mg/kg twice weekly; ii) treatment with ruxolitinib on a dosing schedule of 60 mg/kg twice daily; iii) treatment with ActRIIB(L79D 25-131)-Fc on a dosing schedule of 10 mg/kg twice weekly and ruxolitinib on a dosing schedule of 60 mg/kg twice daily; and iv) treatment with vehicle (TBS) twice weekly (i.e., control animals).

[1] = tested on: myelofibrosis patients with splenomegaly; conditions: cited from earlier work
GDF11 [2] = molecular target: T1, GDF11 (Homo sapiens, UniProt O95390); assay: Biacore steady-state affinity of ActRIIB-hFc proteins for GDF11; type: binding; conditions: compared to counterparts lacking the L79D substitution
T1 sequence (O95390 299-407): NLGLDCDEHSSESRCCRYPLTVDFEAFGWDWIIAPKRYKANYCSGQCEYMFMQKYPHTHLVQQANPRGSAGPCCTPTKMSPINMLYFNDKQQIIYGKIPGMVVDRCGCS
Protocol: (§1) Affinities of several ligands for ActRIIB(25-131)-hFc and its full-length counterpart ActRIIB(20-134)-hFc were evaluated in vitro with a Biacore™ instrument, and the results are summarized in the table below. Kd values were obtained by steady-state affinity fit due to very rapid association and dissociation of the complex, which prevented accurate determination of kon and koff. ActRIIB(25-131)-hFc bound activin A, activin B, and GDF11 with high affinity.
(§2) The affinity of GDF traps and other ActRIIB-hFc proteins for several ligands was evaluated in vitro with a Biacore™ instrument. Kd values were obtained by steady-state affinity fit due to the very rapid association and dissociation of the complex, which prevented accurate determination of kon and koff.

Activin B = molecular target: T2, Activin B (Homo sapiens, UniProt P09529); assay: Biacore steady-state affinity of ActRIIB-hFc proteins for activin B; type: binding; conditions: compared to counterparts lacking the L79D substitution
T2 sequence (P09529 293-407): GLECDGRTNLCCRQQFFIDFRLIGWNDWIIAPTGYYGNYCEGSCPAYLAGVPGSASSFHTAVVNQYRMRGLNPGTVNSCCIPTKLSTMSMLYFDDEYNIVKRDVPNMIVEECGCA
Protocol: as §1, §2

Activin A [3] = molecular target: T3, Activin A (Homo sapiens, UniProt P08476); assay: Biacore steady-state affinity of ActRIIB-hFc proteins for activin A; type: binding; conditions: compared to counterparts lacking the L79D substitution
T3 sequence (P08476 311-426): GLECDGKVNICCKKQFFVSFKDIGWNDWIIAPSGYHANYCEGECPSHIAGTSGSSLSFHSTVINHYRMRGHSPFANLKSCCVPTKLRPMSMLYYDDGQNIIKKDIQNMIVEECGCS
Protocol: as §1, §2

Activin A [4] = molecular target: T3, Activin A; assay: Biacore assay, receptor captured with anti-hFc antibody, activin A injected; type: binding; conditions: for binding to activin A, in words: cell-free Biacore assay; for KD (M), Activin A / Koff (1/s), Activin A / Kon (1/Ms), Activin A: receptor captured via anti-hFc antibody
Protocol: (§3) Binding of certain ActRIIB-Fc proteins and GDF traps to ligands was tested in a Biacore™ assay.
(§4) The ActRIIB-Fc variants or wild-type protein were captured onto the system using an anti-hFc antibody. Ligands were injected and flowed over the captured receptor proteins.

GDF11 [5] = molecular target: T1, GDF11; assay: Biacore assay, receptor captured with anti-hFc antibody, GDF11 injected; type: binding; conditions: for GDF11 binding, in words: cell-free Biacore assay; for Koff (1/s), GDF11: receptor captured via anti-hFc antibody
Protocol: as §3, §4

GDF8 = molecular target: T4, GDF8 (Homo sapiens, UniProt O14793); assay: Biacore assay, receptor captured with anti-hFc antibody, GDF8 injected; type: binding; conditions: for myostatin binding, in words: cell-free Biacore assay; for Koff (1/s), GDF8: receptor captured via anti-hFc antibody
T4 sequence (O14793 267-375): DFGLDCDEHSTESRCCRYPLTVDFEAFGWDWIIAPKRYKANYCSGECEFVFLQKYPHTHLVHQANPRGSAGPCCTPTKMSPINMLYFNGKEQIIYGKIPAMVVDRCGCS
Protocol: as §3, §4

Activin A [6] = molecular target: T3, Activin A; assay: A-204 reporter gene assay, inhibition of activin A signaling; type: cell-based; parameters: host or cells: added to A-204 cells (human rhabdomyosarcoma)
Text: (§5) An A-204 reporter gene assay was used to evaluate the effects of ActRIIB-Fc proteins and GDF traps on signaling by GDF-11 and activin A. Cell line: human rhabdomyosarcoma (derived from muscle). Reporter vector: pGL3(CAGA)12 (described in Dennler et al, 1998, EMBO 17: 3091-3100). The CAGA12 motif is present in TGF-beta responsive genes (e.g., PAI-1 gene), so this vector is of general use for factors signaling through SMAD2 and 3.
(§6) Day 1: Split A-204 cells into 48-well plate.
(§7) Day 2: A-204 cells transfected with 10 ug pGL3(CAGA)12 or pGL3(CAGA)12(10 ug)+pRLCMV (1 μg) and Fugene.
(§8) Day 3: Add factors (diluted into medium+0.1% BSA). Inhibitors need to be preincubated with factors for 1 hr before adding to cells. Six hrs later, cells were rinsed with PBS and lysed.
(§9) This is followed by a luciferase assay.
(§10) Activity of ActRIIB-Fc proteins and GDF traps was tested in a cell-based assay as described above. Some variants were tested in different C-terminal truncation constructs. As discussed above, truncations of five or fifteen amino acids caused reduction in activity.

GDF11 [7] = molecular target: T1, GDF11; assay: A-204 reporter gene assay, inhibition of GDF-11 signaling; type: cell-based; parameters: host or cells: added to A-204 cells (human rhabdomyosarcoma)
Text: as §5, §6, §7, §8, §9, §10

## N#CC[C@H](C1CCCC1)n1cc(-c2ncnc3[nH]ccc23)cn1 [ruxolitinib]
C57BL/6 mice
  decrease of hemoglobin levels compared to control animals: ~4%
  decrease of red blood cell levels compared to control animals: ~4%

## Nc1cccc2c1CN(C1CCC(=O)NC1=O)C2=O (stereo not drawn) [lenalidomide]
[1]
  spleen response rate: 33%

## NC(=O)NO [HC, Hydroxycarbamide]
[1]; Martinez-Trillos et al. (2010)
  patients with reductions in spleen size from 25%-50%: up to 35%

## Nc1nc(Cl)nc2c1ncn2[C@H]1C[C@H](O)[C@@H](CO)O1 [cladribine]
[1]
  spleen response rate: up to 50%

## O=C1CCC(N2C(=O)c3ccccc3C2=O)C(=O)N1 (stereo not drawn) [thalidomide]
[1]
  spleen response rate: < 20%

## ActRIIB(25-131)-hFc: human ActRIIB extracellular domain residues 25-131 fused to human Fc via three glycine residues, mature SEQ ID NO: 28
GDF11 [2]
  GDF11 binding, in words: high affinity
Activin B
  activin B binding, in words: high affinity
Activin A [3]
  activin A binding, in words: high affinity

B1: ActRIIB(L79D 20-134)-hFc: GDF trap: ActRIIB amino acids 20-134 with L79D substitution fused to human Fc, SEQ ID NO: 29 (protein)
chain: GRGEAETRECIYYNANWELERTNQSGLERCEGEQDKRLHCYASWRNSSGTIELVKKGCWDDDFNCYDRQECVATEENPQVYFCCCEGNFCNERFTHLPEAGGPEVTYEPPPTAPTGGGTHTCPPCPAPELLGGPSVFLFPPKPKDTLMISRTPEVTCVVVDVSHEDPEVKFNWYVDGVEVHNAKTKPREEQYNSTYRVVSVLTVLHQDWLNGKEYKCKVSNKALPVPIEKTISKAKGQPREPQVYTLPPSREEMTKNQVSLTCLVKGFYPSDIAVEWESNGQPENNYKTTPPVLDSDGSFFLYSKLTVDKSRWQQGNVFSCSVMHEALHNHYTQKSLSLSPGK
Activin A [4]
  binding to activin A, in words: markedly decreased (non-quantifiable)
  KD (M), Activin A: Low binding
GDF11 [5]
  GDF11 binding, in words: retains
  Koff (1/s), GDF11: 0.000439 s⁻¹
GDF8
  myostatin binding, in words: retains
  Koff (1/s), GDF8: 0.00083 s⁻¹
Activin A [6]
  inhibition of activin A activity, in words: substantial loss
GDF11 [7]
  inhibition of GDF-11 activity, in words: almost wild-type

B2: ActRIIB(L79E 20-134)-hFc: GDF trap form with a glutamate rather than an aspartate at position 79, human Fc fusion (protein)
chain: B1 chain with D60E
Activin A [4]
  binding to activin A, in words: markedly decreased (non-quantifiable)
  KD (M), Activin A: Low binding
GDF11 [5]
  GDF11 binding, in words: retains
  Koff (1/s), GDF11: 0.000274 s⁻¹
GDF8
  myostatin binding, in words: retains
  Koff (1/s), GDF8: 0.0009 s⁻¹
Activin A [6]
  inhibition of activin A activity, in words: substantial loss
GDF11 [7]
  inhibition of GDF-11 activity, in words: almost wild-type

B3: ActRIIB(R64K 20-134)-hFc: ActRIIB(20-134)-hFc variant with R64K substitution (protein)
chain: B1 chain with R45K, D60L
Activin A [4]
  Koff (1/s), Activin A: 0.000325 s⁻¹
  Kon (1/Ms), Activin A: 6.82e+06 M⁻¹ s⁻¹
GDF11 [5]
  Koff (1/s), GDF11: 2.41e-05 s⁻¹
GDF8
  Koff (1/s), GDF8: 4.71e-05 s⁻¹

B4: ActRIIB(R64K 20-129)-hFc: ActRIIB-hFc variant, residues 20-129, R64K substitution (protein)
chain: GRGEAETRECIYYNANWELERTNQSGLERCEGEQDKRLHCYASWKNSSGTIELVKKGCWLDDFNCYDRQECVATEENPQVYFCCCEGNFCNERFTHLPEAGGPEVTYEPPGGGTHTCPPCPAPELLGGPSVFLFPPKPKDTLMISRTPEVTCVVVDVSHEDPEVKFNWYVDGVEVHNAKTKPREEQYNSTYRVVSVLTVLHQDWLNGKEYKCKVSNKALPVPIEKTISKAKGQPREPQVYTLPPSREEMTKNQVSLTCLVKGFYPSDIAVEWESNGQPENNYKTTPPVLDSDGSFFLYSKLTVDKSRWQQGNVFSCSVMHEALHNHYTQKSLSLSPGK
Activin A [4]
  Koff (1/s), Activin A: 0.000628 s⁻¹
  Kon (1/Ms), Activin A: 7.46e+06 M⁻¹ s⁻¹
GDF8
  Koff (1/s), GDF8: 0.000209 s⁻¹

B5: ActRIIB(P129S, P130R 20-134)-hFc: ActRIIB(20-134)-hFc variant with P129S and P130R substitutions (protein)
chain: B1 chain with D60L, P110S, P111R
Activin A [4]
  Koff (1/s), Activin A: 0.000417 s⁻¹
  Kon (1/Ms), Activin A: 5.02e+06 M⁻¹ s⁻¹
GDF8
  Koff (1/s), GDF8: 0.00018 s⁻¹

B6: ActRIIB(K74A 20-134)-hFc: ActRIIB(20-134)-hFc variant with K74A substitution (protein)
chain: B1 chain with K55A, D60L
GDF8
  Koff (1/s), GDF8: 2.03e-05 s⁻¹

B7: ActRIIB(A24N 20-134)-hFc: ActRIIB(20-134)-hFc variant with A24N substitution (protein)
chain: B1 chain with A5N, D60L
Activin A [4]
  Koff (1/s), Activin A: 0.000346 s⁻¹
  Kon (1/Ms), Activin A: 3.34e+06 M⁻¹ s⁻¹
GDF11 [5]
  Koff (1/s), GDF11: 6.35e-05 s⁻¹
